Values belong to the molecule of their own block, whether it stands above or below them.
B1: N-PH-FFAT construct of OSBP (domain or fragment, human, UniProt P22059 1-408, looked up)
chain: MAATELRGVVGPGPAAIAALGGGGAGPPVVGGGGGRGDAGPGSGAASGTVVAAAAGGPGPGAGGVAAAGPAPAPPTGGSGGSGAGGSGSAREGWLFKWTNYIKGYQRRWFVLSNGLLSYYRSKAEMRHTCRGTINLATANITVEDSCNFIISNGGAQTYHLKASSEVERQRWVTALELAKAKAVKMLAESDESGDEESVSQTDKTELQNTLRTLSSKVEDLSTCNDLIAKHGTALQRSLSELESLKLPAESNEKIKQVNERATLFRITSNAMINACRDFLMLAQTHSKKWQKSLQYERDQRIRLEETLEQLAKQHNHLERAFRGATVLPANTPGNVGSGKDQCCSGKGDMSDEDDENEFFDAPEIITMPENLGHKRTGSNISGASSDISLDEQYKHQLEETKKEKRTR

Legend:
[1] = target: OSBP Central Core (CC), wild type (human) (UniProt P22059); experiment: SEC
[2] = target: OSBP CC[V199C] construct (V199C/C224A/C276A), labelled with AF-488 or AF-568 (human) (UniProt P22059); experiment: FRET or BRET
[3] = target: the molecule itself; experiment: cryo-EM structure
[4] = target: B1; experiment: membrane tethering in reconstituted contact sites, seen by cryo-EM and cryo-ET

stoichiometry N [1]: 2
Molecule: OSBP Central Core (CC), wild type (from UniProt P22059 199-324) (domain or fragment)

half-time of monomer exchange [2]: 100 min
Molecule: OSBP CC[V199C] construct (V199C/C224A/C276A), labelled with AF-488 or AF-568 (from UniProt P22059 199-324) (domain or fragment)

Molecule: B1
stoichiometry N [3]: 2

binding result [4]: binds
B2: VAP-A (natural protein, human, UniProt Q9P0L0 8-249, looked up)
chain: MAKHEQILVLDPPTDLKFKGPFTDVVTTNLKLRNPSDRKVCFKVKTTAPRRYCVRPNSGIIDPGSTVTVSVMLQPFDYDPNEKSKHKFMVQTIFAPPNTSDMEAVWKEAKPDELMDSKLRCVFEMPNENDKLNDMEPSKAVPLNASKQDGPMPKPHSVSLNDTETRKLMEECKRLQGEMMKLSEENRHLRDEGLRLRKVAHSDKPGSTSTASFRDNVTSPLPSLLVVIAAIFIGFFLGKFIL
stoichiometry N [3]: 2

Source: article doi:10.1101/2020.10.13.337493 (bioRxiv, 2020)
